In the supplement of paper PMC12636428:

Test system: Saccharomyces cerevisiae
Assay: transcriptional activation domain activity (GFP:mCherry ratio, weighted mean of sorted bins, harmonized to initial dataset scale) (arbitrary fluorescence ratio units); higher = stronger transcriptional activation
Settings: beta-estradiol 1 µM; induction time 4 h
Method in brief: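 Protein tiles carrying barcodes and fused to an estradiol-inducible synthetic transcription factor were placed at the URA3 locus of yeast diploids with a GFP reporter. Following 4 hours at 30 °C in SC with 1 uM beta-estradiol, cells were sorted into 8 GFP:mCherry bins, barcodes were sequenced, and tiles with fewer than 50 reads were discarded. Activation activity is given as the read-weighted mean of bin median fluorescence, averaged across barcodes and linearly mapped to the initial dataset scale.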

Row | Sequence | transcriptional activation domain activity
1 | FVGFVGSLKRQFLRQQFGLFCWVHMSLLLIVCASHFVMNNILEGMIWFWVPAS | 60400
2 | FVGIRDRTTFLLFTSAWTVVFSLLFVLLFMHSASTGSPLTSVASHFVVFLLTW | 56900
3 | FVGNQAGCYNLVPVYDWIKRCIISIFVVFFISFLPLFLQELCERGVIRALYRL | 72800
4 | FVGPQLCRDDAWLHTSIQFTRNVGITRNLLRMLPAVVRPIVARLLPSYWRIYS | 41700
5 | FVHVYLRKRISGFPPGYRVAGELIIWCGAVVALSFESILATDASGSGYRLSDP | 58200
6 | FVIGMSICRAAPGLYIYCWKENIFFLEPSYKSAAVVLSWVWFQVFLLLSQQFF | 59200
7 | FVLDTFLWYIIWNTDIYTRLPKRIYAKILATADMEVKYKPKVLVSQIWNAVLI | 14000
8 | FVLLFSIFQILFSKSPFVLCVWLISLALIATIKTMYSVLITWHLQFLAFPFYS | 54400
9 | FVLLLFTCVHVFVVYLVVIAFFTVNICLLWTIALSFMLWYIFFCNLSCSTWPL | 54300
10 | FVLYFFFFFFLFFFFASGLVFFIRLFFFCAVFSASPYSCCCYYFNCAYPIYVL | 55700
11 | FVNLPYYPHVHLSSFFFFCFSLSIFVLSFRFVHLIPFPSYLLCLSVRLFFGLL | 25600
12 | FVTFVFCPPLLAFAHRFGRKVLKRIILALLAFHLVIVLLSSAIMSPYDELHPK | 34300
13 | FVTLFGLAYFILTILPCLDHSCPYRTPMSSLWWYLWHMSLSSATLCLCWLLRL | 33600
14 | FVVLLYQSIFVLSLWLLPVFFKSHIKSLSYKSQVDTSIHVVSMFQCLLILYLI | 50200
15 | FVWILETLNTGFSAHAIEYFAIYNKGNMMMLWSVPWTISVSNNLLCSTLGLNH | 32200
16 | FVYELWRHGGLGVYSFRLTELLVKVVLEAECKEIMDWWLEKQGYILHDLHRKA | 50300
17 | FVYLILTILPCLDHRCPYRTPMSSIWWYCWHTSLGFFALCARWLLNLLHGILV | 50200
18 | FVYSLCIRYLLAPTPTFQEHGVSPRRSTGIALITLFFIILVIFLLTWMRLIHI | 45100
19 | FWFPNYIFGALSFFSWMSWIAPTNINLANITGSSTGLGLNPFSSFDWNVWTFN | 51400
20 | FWFPNYLFEALTFFSWMTWISPNNLNLEILTGFRNGLGMFNPWPTFDWNVLLF | 51500
21 | FWGLRSLPSSPFICLFLFYCGLVLMHSGLYLGLFLFLLFLSLSVFLFLSHFSV | 30100

Row | Sequence | transcriptional activation domain activity
22 | FWNLFNLVPGIQAQNLHCRYDYYPWGLSAFCQFLPIANAIGLTGSYTGIIYCC | 33900
23 | FWPWTFWPWIFWTFGLFGLGLFGLGLFGFFGLFGPLDFLDFLDFLALDFLDFL | 37000
24 | FWRYRQNQYAYILSYIVGSETSEERISVMRKNGTYHPAPYQFVYLRVRIANLS | 38700
25 | FWVWMMTSPAFPLKLFIPLFHLTILLIPFTSQFFTPALPITSWLICFFSSKFI | 49200
26 | FYAALYPFKGIFFFIGHPFLYPLARARLIPAFLLSAFVLLNLFFWTYLPQVAF | 34300
27 | FYAMVHWYKIFQSGHSIVRIFLLLIEFLYNLISLVFSWFSLANFYLCYYFLYH | 49600
28 | FYFFFLLSLFSSSSPPLIFLALPLPFSISLTVSNPLAFPVAFFPLFSLSSLLN | 65800
29 | FYFICLFFILYFVFIFMFVFHMFVFYFLCFFLCLIYFLLVYFDICFLSLYLFF | 42600
30 | FYFSWIAQEKYTDAFLLKPLGHYLGTRQLNQENIFIAYYIFVLACHYTFLYVS | 33300
31 | FYGDISLSRRGFLIASMFILRLFRAISYLAFNAILVDMPTRQAILRFFHYFGR | 50200
32 | FYGLYPDNAQTLGSAPKTPTMRLVKAYLKTILSNPESRKIFYFLVLNLSYMMV | 85300
33 | FYGYFNVLKIYLIKYRSSEVFFFFFDFLMYTENEWFITNLFFLLSFILHLGFF | 60200
34 | FYICAILGFKIGIIFAFLRIAVDRTYRISIICVAVICSAFYFCFFVAQLNFCT | 62100
35 | FYLSPVMPLFPPLLKLLREYLSDPLYKDFVSAIYLWVRSVELHHMSTLCIALL | 68900
36 | FYMQLCVNIFLASGFIYILYCAWGAIISDVDIEASKHMSEVLVDIALCAKQYN | 22900
37 | FYPIGRRWQWYWGLWVCACALISLFSNIEVDRYYLQSLPITITIFFWYLMCMG | 28200
38 | FYSRVASSTLLFFWLTSLISNGIIIRTNYLLDQHHSRLLLFALLVVQELLCVL | 68600
39 | FYTLIVEEDQSLWLCLKWCFFDMLFMFGIPLLEIPWLEWSNGAAFLLFVLHAG | 63300
40 | FYWIPIFRAVGKYKYSNLLNKFLLDLHLRYPKKLQNAIRSNWLCNPSGKKNKF | 64100
41 | GAAAASGTKPKPTAAGGAAGAAAASGAKPKPTAAGAAGAAAASGAKPKPTGAA | 15300
42 | GAAASPPPNPDGGKPRKRKGPKEKGGEGNAAARRDAGAGAGAGAARSGSAAAA | 27100

Row | Sequence | transcriptional activation domain activity
43 | GAAASTPAAPQKPAGGLFGGAGLGAASKPADAAASSSSSGLFGAKPAESAPAA | 30900
44 | GAAATPAKPLGFGATSTATTGGLFGNTGAAPAAGGGLFGATATSHQLLVLVAV | 85800
45 | GAAEVDAAAPEGAETIEGAPAATEKQPRPPKKPRTPRPRRPAGEEPAGEPSKN | 29700
46 | GAAHVPSGLSEEKELEQEKKKADRRKGMREKAKEREAKRPVEVAAPEPVAAAP | 23700
47 | GAAPPPPPPPPARGGGAAPPPPPPPPPARGGAVPPPPPPPPPSGGGPPPPPPP | 33000
48 | GAARVQVDFWFFLFVYYGLYNLTALIWITKVFNLYSLNWWPQSLGFPLTVSLI | 61300
49 | GAATTANAGGKRNRMKVNGKYYTRLDCIGRGGSSRVYRVMAENSKFFALKRVT | 35500
50 | GACLQDIAMVGFIDTNSIGCVASSVVLYLSLVFIIGVVAIRFFMAVMFQWFFS | 35600
51 | GAEAGAAVPGKRRNRRGRRGKKKKPGLANGAANGDGVEREDGENGEGEVPKEE | 52100
52 | GAEEGAKEKAGEVAKKRKREVAAAVEDEEGGQPKAEKVRTKKGGGKSKEKKDS | 27400
53 | GAEGAGAPGGAPPQLKKPKKHHKKKHHKKHGHRGGKHKHGKKGKWGKKGKKGL | 15100
54 | GAEYICQYKGGLIGKHFKSFAQIMPYLIYDLVPPSVLDAWTTIGSPVVLLWHT | 46000
55 | GAGAGGKVGGGAGAGAGAGAGAGHLGGGAEGGGKIGAGAGGKVGGEIGAGGKI | 25000
56 | GAGGAAGGAGAGAGTAATGGNAAGGKASATKPAAGAKSSPAAAAAAAGTRLTG | 7150
57 | GAGGAMGAALKHAVRDLAALSTAVSGAWVVEAITSSCSRRSIAVLVSRALAAM | 42000
58 | GAGGGITSNGGGKPAAAAEGAKPASEAPKEASKPEGAKPASESPKPEGEKPAA | 27600
59 | GAGPVGYGPQGAGEGDGESKSDSETMRTATTQPPPKPKQLYFIYVLASHYGLG | 61700
60 | GAGVGGATDGAEGKKGDGGGGKEKEREEGERRKKKKKRNKEGRDGGGGGTGGD | 43300
61 | GAKDLDDAVSIKVNEDGTYDVSVHVADVSFFVKPNTALDRDARKRATSVYLVQ | 48400
62 | GAKEEGGKKEAGGEKKEGSGKEGAKEGGEKGAKEGGEKKEGGEKGEGKEGGEG | 20300
63 | GAKGKGAEKGKSKQAEQGDGEDGGSEAEGGKRKRAARSKAKTKGKAGGAADGG | 23300

Row | Sequence | transcriptional activation domain activity
64 | GAKVRSWPLTYIYTLYFFMTYFIFYRNLFARLQDPKQVLYLQLGLSMWIVFIY | 35200
65 | GALRLAASQEGIKLGDDVKSNVKMVLGKDAQGGFAVSAEVTVSGNGVTKALVD | 31300
66 | GANADELGHIIVTRRNRFWKIKGIVGGRILSMPELERWTLFVLLMCFRLHIYP | 23900
67 | GANAGGARPSSRTSNKKPTSSASPPNDSNDSNKKKDADAKKHDGKKAERGGGR | 29100
68 | GAPHHNQFLDLNLGLEVYKETGRRVQFLVAAKSMQRKFVGLCCRLIHAIPVVR | 67400
69 | GAQKPFDLTHWNITEYDCQGFDGYHEMSFFVLASHLYYRSLRSIPSLVRLWWI | 75200
70 | GAQTSGPSSSAGSNNNSSSSSSEEDEPATGGSNGTQLKGKPRKTAAKRATSSG | 35300
71 | GARRQARRPRKRESSAADGDDNDADRMDVDREEARGGREQADAGDAEDEDDEE | 40000
72 | GARTGKDKEKEKDKEKDKGARRSSCRSWSRDRGRSRSRSPRRDRERDRERGRG | 31500
73 | GASAFGSAAQLGQKSSPWGSATSAVPSTGGAVFGSSGFGNAAPSAAPAFGKPS | 33200
74 | GASGGTKLAKKAPAAAAPKKVAAPKKEAAPKKEIKEKKPAAAPKKAAVPKKEA | 38800
75 | GASPEESNSGNSRAGASRARKGSKVIDENMVEDALLGLQITHGCLVHHTASVQ | 44800
76 | GASSSAAAAGSSEEAPKKKRGRPPKEKKADESGAETEPAPKRKRGRPPKNPKP | 21200
77 | GASTPVTTGGKRKSDGGAGGSAKKERKTPAAKKDKEEKAPRGKANGAKATAAS | 22000
78 | GASTSAFGTPSALGAKPNPFGTPATGGAFGQPAAAPAFGQPTQPAGAFGQPAQ | 40300
79 | GASVDIHVTYQSSVKEGDEVEIEGIAEKVGGSLAFTKVNIFRVEDGERGRPVA | 36800
80 | GASYVIFCLRYYYKGKRRRLTNRLVAYKRALLLVQFVFTHHKWPSYIVILESY | 46200
81 | GATSTDHQHHHHRIQFHSHKPNRNNIVNNSGISAANTTADLTNNDLNDLISRE | 31400
82 | GATSTPAATGTTGGLFGSGGTTTGGFGSTSTPAAGGFGSTSTGGGLFGAKPAT | 21400
83 | GAVAADVEDEDADDALEEPAKGKKRKSKVEEDESEAEKPAKKGRGRKSTETNG | 42600
